Legend:
[1] = biological target: human CD33 G247A (human, UniProt P20138 18-364); test: alanine scan, flow cytometry, HEK293-T;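 further: antibody binding to each alanine-substituted CD33 mutant expressed transiently in HEK293-T, read as fluorescence minus background, mean of duplicates, relative to wild-type CD33 set as 100%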
[2] = biological target: human CD33 S305A (human, UniProt P20138 18-364); test: alanine scan, flow cytometry, HEK293-T;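 further: antibody binding to each alanine-substituted CD33 mutant expressed transiently in HEK293-T, read as fluorescence minus background, mean of duplicates, relative to wild-type CD33 set as 100%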
[3] = biological target: human CD33 H300A (human, UniProt P20138 18-364); test: alanine scan, flow cytometry, HEK293-T;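 further: antibody binding to each alanine-substituted CD33 mutant expressed transiently in HEK293-T, read as fluorescence minus background, mean of duplicates, relative to wild-type CD33 set as 100%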
[4] = biological target: human CD33 H317A (human, UniProt P20138 18-364); test: alanine scan, flow cytometry, HEK293-T;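 further: antibody binding to each alanine-substituted CD33 mutant expressed transiently in HEK293-T, read as fluorescence minus background, mean of duplicates, relative to wild-type CD33 set as 100%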
[5] = biological target: human CD33 A306S (human, UniProt P20138 18-364); test: alanine scan, flow cytometry, HEK293-T
[6] = biological target: human CD33 H259A (human, UniProt P20138 18-364); test: alanine scan, flow cytometry, HEK293-T
[7] = biological target: human CD33 I262A (human, UniProt P20138 18-364); test: alanine scan, flow cytometry, HEK293-T
[8] = biological target: human CD33 K288A (human, UniProt P20138 18-364); test: alanine scan, flow cytometry, HEK293-T
[9] = biological target: human CD33 K315A (human, UniProt P20138 18-364); test: alanine scan, flow cytometry, HEK293-T
[10] = biological target: human CD33 A265S (human, UniProt P20138 18-364); test: alanine scan, flow cytometry, HEK293-T
[11] = biological target: human CD33 F280A (human, UniProt P20138 18-364); test: alanine scan, flow cytometry, HEK293-T
[12] = biological target: human CD33 T303A (human, UniProt P20138 18-364); test: alanine scan, flow cytometry, HEK293-T
[13] = biological target: human CD33 R296A (human, UniProt P20138 18-364); test: alanine scan, flow cytometry, HEK293-T
[14] = biological target: human CD33 S307A (human, UniProt P20138 18-364); test: alanine scan, flow cytometry, HEK293-T
[15] = biological target: human CD33 T302A (human, UniProt P20138 18-364); test: alanine scan, flow cytometry, HEK293-T
[16] = biological target: human CD33 A290S (human, UniProt P20138 18-364); test: alanine scan, flow cytometry, HEK293-T
[17] = biological target: human CD33 G304A (human, UniProt P20138 18-364); test: alanine scan, flow cytometry, HEK293-T
[18] = biological target: human CD33 P244A (human, UniProt P20138 18-364); test: alanine scan, flow cytometry, HEK293-T
[19] = biological target: human CD33 N20K (human, UniProt P20138 18-364); test: flow cytometry, mutant on cells, IgG
[20] = biological target: human CD33 I47V (human, UniProt P20138 18-364); test: flow cytometry, mutant on cells, IgG
[21] = biological target: human CD33 Q24R (human, UniProt P20138 18-364); test: flow cytometry, mutant on cells, IgG
[22] = biological target: human CD33 F21L (human, UniProt P20138 18-364); test: flow cytometry, mutant on cells, IgG
Chain of human CD33 F21L (P20138 18-364 F21L limits assumed): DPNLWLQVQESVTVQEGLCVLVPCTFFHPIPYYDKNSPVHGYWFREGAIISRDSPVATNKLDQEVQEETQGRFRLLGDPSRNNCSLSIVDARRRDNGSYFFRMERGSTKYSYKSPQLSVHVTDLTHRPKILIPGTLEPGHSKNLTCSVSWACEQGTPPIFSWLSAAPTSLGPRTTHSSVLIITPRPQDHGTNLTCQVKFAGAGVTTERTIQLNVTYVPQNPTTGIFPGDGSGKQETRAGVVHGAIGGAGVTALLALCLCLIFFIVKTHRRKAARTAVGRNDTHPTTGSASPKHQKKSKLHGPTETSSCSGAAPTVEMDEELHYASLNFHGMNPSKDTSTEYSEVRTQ

Chain of human CD33 N20K (P20138 18-364 N20K limits assumed): as the sequence (P20138 18-364 F21L limits assumed) above, with N3K, L4F counted along it
Chain of human CD33 I47V (P20138 18-364 I47V limits assumed): as the sequence (P20138 18-364 F21L limits assumed) above, with L4F, I30V counted along it
Chain of human CD33 Q24R (P20138 18-364 Q24R limits assumed): as the sequence (P20138 18-364 F21L limits assumed) above, with L4F, Q7R counted along it
Chain of human CD33 G247A (P20138 18-364 G247A limits assumed): as the sequence (P20138 18-364 F21L limits assumed) above, with L4F, G230A counted along it
Chain of human CD33 S305A (P20138 18-364 S305A limits assumed): as the sequence (P20138 18-364 F21L limits assumed) above, with L4F, S288A counted along it
Chain of human CD33 A306S (P20138 18-364 A306S limits assumed): as the sequence (P20138 18-364 F21L limits assumed) above, with L4F, A289S counted along it
Chain of human CD33 I262A (P20138 18-364 I262A limits assumed): as the sequence (P20138 18-364 F21L limits assumed) above, with L4F, I245A counted along it
Chain of human CD33 H300A (P20138 18-364 H300A limits assumed): as the sequence (P20138 18-364 F21L limits assumed) above, with L4F, H283A counted along it
Chain of human CD33 H259A (P20138 18-364 H259A limits assumed): as the sequence (P20138 18-364 F21L limits assumed) above, with L4F, H242A counted along it
Chain of human CD33 R296A (P20138 18-364 R296A limits assumed): as the sequence (P20138 18-364 F21L limits assumed) above, with L4F, R279A counted along it
Chain of human CD33 K315A (P20138 18-364 K315A limits assumed): as the sequence (P20138 18-364 F21L limits assumed) above, with L4F, K298A counted along it
Chain of human CD33 F280A (P20138 18-364 F280A limits assumed): as the sequence (P20138 18-364 F21L limits assumed) above, with L4F, F263A counted along it
Chain of human CD33 T303A (P20138 18-364 T303A limits assumed): as the sequence (P20138 18-364 F21L limits assumed) above, with L4F, T286A counted along it
Chain of human CD33 H317A (P20138 18-364 H317A limits assumed): as the sequence (P20138 18-364 F21L limits assumed) above, with L4F, H300A counted along it
Chain of human CD33 P244A (P20138 18-364 P244A limits assumed): as the sequence (P20138 18-364 F21L limits assumed) above, with L4F, P227A counted along it
Chain of human CD33 S307A (P20138 18-364 S307A limits assumed): as the sequence (P20138 18-364 F21L limits assumed) above, with L4F, S290A counted along it
Chain of human CD33 K288A (P20138 18-364 K288A limits assumed): as the sequence (P20138 18-364 F21L limits assumed) above, with L4F, K271A counted along it
Chain of human CD33 A265S (P20138 18-364 A265S limits assumed): as the sequence (P20138 18-364 F21L limits assumed) above, with L4F, A248S counted along it
Chain of human CD33 G304A (P20138 18-364 G304A limits assumed): as the sequence (P20138 18-364 F21L limits assumed) above, with L4F, G287A counted along it
Chain of human CD33 T302A (P20138 18-364 T302A limits assumed): as the sequence (P20138 18-364 F21L limits assumed) above, with L4F, T285A counted along it
Chain of human CD33 A290S (P20138 18-364 A290S limits assumed): as the sequence (P20138 18-364 F21L limits assumed) above, with L4F, A273S counted along it

Binder | Mean % WT Binding [1] [% WT binding] | Mean % WT Binding [2] [% WT binding] | Mean % WT Binding [3] [% WT binding] | Mean % WT Binding [4] [% WT binding] | Mean % WT Binding [5] [% WT binding] | Mean % WT Binding [6] [% WT binding] | Mean % WT Binding [7] [% WT binding] | Mean % WT Binding [8] [% WT binding] | Mean % WT Binding [9] [% WT binding] | Mean % WT Binding [10] [% WT binding] | Mean % WT Binding [11] [% WT binding] | Mean % WT Binding [12] [% WT binding] | Mean % WT Binding [13] [% WT binding] | Mean % WT Binding [14] [% WT binding] | Mean % WT Binding [15] [% WT binding] | Mean % WT Binding [16] [% WT binding] | Mean % WT Binding [19] [% WT binding] | Mean % WT Binding [20] [% WT binding] | Mean % WT Binding [21] [% WT binding] | Mean % WT Binding [22] [% WT binding] | also measured
Refmab #3 (antibody, V domains shown, The alanine scan used IgG or Fab) VH: QVQLVQSGAEVKKPGSSVKVSCKASGYTFTDYNMHWVRQAPGQGLEWIGYIYPYNGGTGYNQKFKSKATITADESTNTAYMELSSLRSEDTAVYYCARGRPAMDYWGQGTLVTVSS VL: DIQMTQSPSSLSASVGDRVTITCRASESVDNYGISFMNWFQQKPGKAPKLLIYAASNQGSGVPSRFSGSGSGTDFTLTISSLQPDDFATYYCQQSKEVPWTFGQGTKVEIK | 106 | 103 | 68.3 | 157 | 111 | 104 | 130 | 107 | 136 | 92.4 | 99 | 72.7 | 92.9 | 60.1 | 101 | 97.2 |  |  |  |  | Mean % WT Binding [17]: 121 % WT binding; Mean % WT Binding [18]: 138 % WT binding
Refmab #3 (antibody, human IgG1, V domains shown, Tested in IgG format; human IgG1 Fc silent (PG-LALA)) VH: QVQLVQSGAEVKKPGSSVKVSCKASGYTFTDYNMHWVRQAPGQGLEWIGYIYPYNGGTGYNQKFKSKATITADESTNTAYMELSSLRSEDTAVYYCARGRPAMDYWGQGTLVTVSS VL: DIQMTQSPSSLSASVGDRVTITCRASESVDNYGISFMNWFQQKPGKAPKLLIYAASNQGSGVPSRFSGSGSGTDFTLTISSLQPDDFATYYCQQSKEVPWTFGQGTKVEIK |  |  |  |  |  |  |  |  |  |  |  |  |  |  |  |  | 0.8 | 100 | 74.6 | 1 | 
Refmab #1 (antibody, human IgG1, V domains shown, Tested in IgG format; human IgG1 (Absolute Antibody hP67.6, Cat. No. Ab00283-10.0); also called hP67.6) VH: EVQLVQSGAEVKKPGSSVKVSCKASGYTITDSNIHWVRQAPGQSLEWIGYIYPYNGGTDYNQKFKNRATLTVDNPTNTAYMELSSLRSEDTAFYYCVNGNPWLAYWGQGTLVTVSS VL: DIQLTQSPSTLSASVGDRVTITCRASESLDNYGIRFLTWFQQKPGKAPKLLMYAASNQGSGVPSRFSGSGSGTEFTLTISSLQPDDFATYYCQQTKEVPWSFGQGTKVEVK |  |  |  |  |  |  |  |  |  |  |  |  |  |  |  |  | 0.4 | 112 | 95.1 | 4.7 | 
Refmab #2 (antibody, human IgG1, V domains shown, Tested in IgG format; human IgG1 Fc silent (PG-LALA)) VH: QVQLVQSGAEVKKPGSSVKVSCKASGGTFSDYAISWVRQAPGQGLEWMGRIIPILGVADYAQKFQGRVTITADKSTRTAYMELSSLRSEDTAVYYCARNWADAFDIWGQGTMVTVSS VL: DIQLTQSPSSLSASVGDRVTITCRASQGISSVLAWYQQKPGKAPKLLIYDASSLESGVPSRFSGSGSGTDFTLTISSLQPEDFATYYCQQFDSSITFGQGTKLEIK |  |  |  |  |  |  |  |  |  |  |  |  |  |  |  |  | 103 | 97.2 | 96.8 | 120 | 
Refmab #4 (antibody, V domains shown, The alanine scan used IgG or Fab) VH: QVQLVQSGAEVKKPGESVKVSCKASGYTFTNYGMNWVKQAPGQGLEWMGWINTYTGEPTYADKFQGRVTMTTDTSTSTAYMEIRNLGGDDTAVYYCARWSWSDGYYVYFDYWGQGTSVTVSS VL: DIVMTQSPDSLTVSLGERTTINCKSSQSVLDSSTNKNSLAWYQQKPGQPPKLLLSWASTRESGIPDRFSGSGSGTDFTLTIDSPQPEDSATYYCQQSAHFPITFGQGTRLEIK | 113 | 104 | 95.2 | 82.6 | 79.3 | 114 | 111 | 100 | 48.4 | 126 | 92.3 | 81.2 | 106 | 114 | 98.2 | 107 |  |  |  |  | Mean % WT Binding [17]: 95 % WT binding; Mean % WT Binding [18]: 100 % WT binding
Refmab #4 (antibody, human IgG1, V domains shown, Tested in IgG format; human IgG1 Fc silent (PG-LALA)) VH: QVQLVQSGAEVKKPGESVKVSCKASGYTFTNYGMNWVKQAPGQGLEWMGWINTYTGEPTYADKFQGRVTMTTDTSTSTAYMEIRNLGGDDTAVYYCARWSWSDGYYVYFDYWGQGTSVTVSS VL: DIVMTQSPDSLTVSLGERTTINCKSSQSVLDSSTNKNSLAWYQQKPGQPPKLLLSWASTRESGIPDRFSGSGSGTDFTLTIDSPQPEDSATYYCQQSAHFPITFGQGTRLEIK |  |  |  |  |  |  |  |  |  |  |  |  |  |  |  |  | 102 | 99 | 98.6 | 114 | 

From US20260242735A1 (UNIVERSIT T BASEL, published 2026)
